Results as given in patent publication US7217694B2, “Inhibitors of IAPP fibril formation and uses thereof” (The Governing Counsel of the University of Toronto, priority 2000, dated 2007).
“Also recorded” adds a separate entry of the source. No end group written: not given here.

Columns and labels:
RIN-1056A cells = test: IAPP toxicity assay (alamar Blue); assay type: cell-based
Description: RIN-1056A cells were plated into 96 well plates at a density of 2×10^4 cells/well in Dulbecco's Modified Eagle Medium (DMEM) (Gibco-BRL) supplemented with 5% Fetal calf serum (Gibco-BRL), 100 U/ml penicillin (Gibco-BRL), and 100 U/ml streptomycin (Gibco-BRL). After an initial 24 h of culture, cells received fresh medium containing 10 μM hIAPP or rat IAPP alone, or in combination with 200 μM SNNFGA (SEQ ID NO. 11). Cells in control wells received fresh medium only. Cells were incubated with peptide at 37° C., 5% CO2, for 24 hours, after which alamar Blue ( 1/10th volume) was added to each well. Cells were incubated in the presence of alamar Blue (MEDICORP, Montreal) for a period of 8 hours, and data was collected at 2 hour intervals. The fluorescence of the samples was measured using a SpectraMAX Gemini XS Microplate Spectrofluorometer (Molecular Devices) with an excitation wavelength of […] and an emission wavelength of 590 nm. Data were collected using the SoftMax Pro 3.1 software for MacIntosh.
The toxicity of hIAPP fibrils on pancreatic β cell lines has been well documented. […] cells were incubated for 24 hours in the presence of 10 μM hIAPP alone or in the presence of the peptide SNNFGA (SEQ ID NO. 11). An alamar Blue assay was used to quantitatively measure the proliferation of the cells, and compare the cytotoxic effects of various additives to the cultures.

hIAPP 1–37 [1] = target: T1, hIAPP 1–37 (Homo sapiens, UniProt P10997); test: Negative stain electron microscopy of IAPP fibril morphology and density; assay type: biochemical
T1 construct: Synthetic human IAPP (1–37) was purchased from BACHEM; purchased BACHEM (Torrence, Calif.); host or cells: chemical synthesis
T1 sequence (P10997 34-70): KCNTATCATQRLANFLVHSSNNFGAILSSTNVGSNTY
From the text: (§1) FIG. 1 illustrates the sequence of the amyloid-β (Aβ) peptide and its proposed structural domains. A peptide-based approach similar to that used for Aβ (Tjernberg, et al, J Biol Chem 272:12601–12605, 1997) has been used for targeting two key domains in IAPP initially ranging from the 8–20 and 20–29 sequences as shown in FIG. 2. These peptides, as has been shown for Aβ peptides, are able to bind to the full-length IAPP peptide and alter fibrillogenesis. The peptides disrupt fibrillogenesis by disrupting the folding into the amyloidogenic β-sheet conformation, disrupting protofilament interactions, and/or interfering with side chain interactions within the folded IAPP, which are necessary for aggregation and fibril formation. The peptides that have been examined (shown in FIG. 2) were small, synthetic hexapeptides that correspond to the principal sequence domains of IAPP. […] The in vitro assays included: Circular Dichroism (CD), to look at changes in folding of the amyloidogenic β-sheet; negative stain electron microscopy (EM) to examine changes in fibril morphology and relative density; and ThT fluorescence assay which provides a quantitative assessment of fibril formation.
TEM was used for structural analysis of in vitro assembled fibrils. Aliquots (4 μl) were applied to pioloform and carbon coated grids. The samples were incubated on the grids for 3 minutes at room temperature, excess material blotted off and stained with 1% phosphotungstic acid (PTA). Excess PTA was blotted off and the sample was left to air dry. All samples were examined using a Hitachi 7000 electron microscope with an accelerating voltage of 75 kV.
In preliminary work the series of peptides were synthesized from the 20–29 domain and examined, via CD, EM and ThT fluorescence, at two molar ratios (1:10 and 1:20) in comparison to the full-length IAPP residues 1–37. The following data (FIGS. 5A to 5D, 6A to 6C and 7A to 7B) were obtained.

hIAPP 1–37 [2] = target: T1, hIAPP 1–37; test: Sedimentation assay (tyrosine scan) of soluble versus insoluble hIAPP; assay type: biochemical; details: hIAPP 11 μM with 10 fold excess (110 μM) peptide
Description: Aliquots of lyophilized hIAPP 1–37 were dissolved in 20 mM acetate buffer (pH 6.5) to 11 μM and incubated in a total volume of 500 μl at room temperature. Tyrosine emission spectra were collected (emission wavelength 275 nm) on a Beckman DU530 spectrophotometer for each sample at time 0. Following a 24 hour incubation at room temperature, the soluble and aggregated peptides in each sample were separated by centrifugation at 16,000 g for 20 minutes, and the emission spectra were measured on the soluble fractions. The samples were then vortexed to resuspend the entire contents of each tube, and were incubated for an additional 24 hours. This process was repeated for a total of 72 hours of incubation. For co-incubation experiments, hIAPP was incubated with a 10 fold excess concentration (110 μM) of the inhibitory peptides SNNFGA (SEQ ID NO. 11), and GAILSS (SEQ ID NO. 14).
Sedimentation assays were performed to confirm the results from CD and electron microscopic analysis (FIGS. 7A and 7B) on the ability of peptides SNNFGA (SEQ ID NO. 11) and GAILSS (SEQ ID NO. 14) to inhibit IAPP fibril formation. hIAPP (11 μM) was incubated for a period of 72 hours in 20 mM acetate buffer alone, or with a 10 fold excess (110 μM) of the peptides.
A tyrosine scan was used to determine the amount of soluble hIAPP remaining in solution after a 72-hour incubation. […] Following a 24-hour incubation, the amount of soluble hIAPP had reduced to 8%. However, when hIAPP was incubated in the presence of the peptide SNNFGA (SEQ ID NO. 11), the amount of IAPP remaining in solution was approximately […], and in the presence of peptide GAILSS (SEQ ID NO. 14), more than 80% of the hIAPP remained in solution. By 48 hours, the hIAPP incubated alone was no longer soluble and was not detectable using a tyrosine scan. However, approximately 25% of the hIAPP was still measured when co-incubated with either peptide. Similarly, after 72 hours approximately 20% of the hIAPP was still soluble in the sample co-incubated with peptide SNNFGA (SEQ ID NO. 11) or GAILSS (SEQ ID NO. 14).

hIAPP 1–37 [3] = target: T1, hIAPP 1–37; test: Circular dichroism (CD) of IAPP conformational change, random coil to β-sheet; assay type: biochemical
From the text: as §1
Synthetic human IAPP (1–37) was purchased from BACHEM (Torrence, Calif.), synthetic peptides spanning the region from IAPP 8 to 20 and 19–31 (FIG. 3) were synthesized by the Peptide Synthesis Laboratory at the University of Toronto using standard FMOC (Fluoroenylmethoxycarbonyl) based solid phase peptide synthesis methodology. The peptides were purified by reverse phase HPLC using water/acetonitrile mixtures buffered with 0. 1% trifluoroacetic acid, on a POROS 20R2 column. The synthetic peptides were solubilized in […] (1 mg/ml), filtered (0.2 μm), aliquotted and lyophilized (Higham, C E., et al., FEBS Lett. 470: 55–60, 2000). Aliquots were reconstituted as required in 20 mM sodium acetate buffer pH 6.5.
CD was used to measure the peptide conformational changes associated with fibril formation. CD experiments were carried out at room temperature, and spectra (average of 5 scans) were collected using a Jasco J720 spectropolarimeter and quartz cuvettes with a path length of 1 mm. […]

[4] = 24-hour incubation, normalized to hIAPP alone at time 0

amount of hIAPP remaining in solution (hIAPP 1–37 [2]; [4])	amount of hIAPP remaining in solution (hIAPP 1–37 [2]; 48 hours)	amount of hIAPP remaining in solution (hIAPP 1–37 [2]; 72 hours)	Compound	decrease in cell viability compared to cells in culture medium alone (RIN-1056A cells; 10 μM hIAPP, 24 hours)	prevention of IAPP fibril formation (EM) (hIAPP 1–37 [1]; 10- or 20-fold molar excess)	effect on IAPP fibril morphology / density / aggregation (EM) (hIAPP 1–37 [1]; molar ratio not stated)	inhibition of normal IAPP fibrillar aggregation (EM) (hIAPP 1–37 [1]; reduced inhibitor concentrations)	inhibition of IAPP β-sheet transition and aggregation (CD) (hIAPP 1–37 [3]; 1:10 or 1:20 molar ratio (10- or 20-fold molar excess))	inhibition of IAPP β-sheet conformational change at reduced concentrations (CD) (hIAPP 1–37 [3]; 5-fold molar excess (1:5) or 1:1 molar ratio)	effect on IAPP β-sheet formation / precipitation (CD) (hIAPP 1–37 [3]; 48-hour incubation, pH 6.5)	inhibition of IAPP β-sheet formation / fibril formation, overall statement (CD) (hIAPP 1–37 [3]; molar ratio not stated)	effect on initial random structure of IAPP (CD) (hIAPP 1–37 [3]; time 0, 1:10 or 1:20 molar ratio)	direct toxicity of the peptide to pancreatic β cells in culture (RIN-1056A cells)
–	–	–	CC[C@H](C)[C@H](NC(=O)[C@H](C)NC(=O)CNC(=O)[C@H](Cc1ccccc1)NC(=O)[C@H](CC(N)=O)NC(=O)[C@H](CC(N)=O)NC(=O)[C@H](CO)NC(=O)[C@H](CO)NC(=O)[C@H](Cc1c[nH]cn1)NC(=O)[C@@H](NC(=O)[C@H](CC(C)C)NC(=O)[C@H](Cc1ccccc1)NC(=O)[C@H](CC(N)=O)NC(=O)[C@H](C)NC(=O)[C@H](CC(C)C)NC(=O)[C@H](CCCNC(=N)N)NC(=O)[C@H](CCC(N)=O)NC(=O)[C@@H](NC(=O)[C@H](C)NC(=O)[C@@H]1CSSC[C@H](NC(=O)[C@@H](N)CCCCN)C(=O)N[C@@H](CC(N)=O)C(=O)N[C@@H]([C@@H](C)O)C(=O)N[C@@H](C)C(=O)N[C@@H]([C@@H](C)O)C(=O)N1)[C@@H](C)O)C(C)C)C(=O)N[C@@H](CC(C)C)C(=O)N[C@@H](CO)C(=O)N[C@@H](CO)C(=O)N[C@H](C(=O)N[C@@H](CC(N)=O)C(=O)N[C@H](C(=O)NCC(=O)N[C@@H](CO)C(=O)N[C@@H](CC(N)=O)C(=O)N[C@H](C(=O)N[C@@H](Cc1ccc(O)cc1)C(N)=O)[C@@H](C)O)C(C)C)[C@@H](C)O [hIAPP, reference compound]	35–40%	–	–	–	–	–	–	–	–	–
more than 80%	approximately 25%	approximately 20%	GAILSS	–	did not completely prevent fibril formation	caused a disruption in IAPP fibrillar structure; also recorded: fibrils formed were less numerous; also recorded: absence of fibrillar aggregates which could act as seeds	effective inhibitors of normal IAPP fibrillar aggregation	very strong inhibitors of IAPP β-sheet transition; also recorded: majority of IAPP in these samples was maintained in a random conformation	very strong inhibitor; also recorded: capable of maintaining the majority of hIAPP in a random coil conformation	able to prevent the attenuation of signal due to precipitation of IAPP	greatest inhibition of IAPP fibril formation	had no effect on the initial random structure of IAPP	–
approximately 15%	approximately 25%	approximately 20%	SNNFGA [SNNFGA]	–	–	–	–	–	–	–	–	–	not directly toxic
